Values quoted from earlier work as cited in article PMC8507859.
Where two headings read alike, the source gives them in different places.

Assays:
[1] = molecular target: Integrin α2 (Homo sapiens) (UniProt P17301)
MMP-14 (Homo sapiens) [2] = molecular target: MMP-14 (Homo sapiens) (UniProt P50281)
MMP-14 (Homo sapiens) [3] = molecular target: MMP-14 (Homo sapiens) (UniProt P50281); remark: listed apart in the source

TIMP-2, sequence (P16035 27-220): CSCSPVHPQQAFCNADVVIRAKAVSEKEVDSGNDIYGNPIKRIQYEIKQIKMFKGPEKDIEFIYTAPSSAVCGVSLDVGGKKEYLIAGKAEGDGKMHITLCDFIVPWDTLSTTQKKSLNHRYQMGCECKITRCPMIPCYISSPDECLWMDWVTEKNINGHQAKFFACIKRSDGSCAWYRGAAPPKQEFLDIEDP
Integrin α2 (Homo sapiens), sequence (P17301 30-1132): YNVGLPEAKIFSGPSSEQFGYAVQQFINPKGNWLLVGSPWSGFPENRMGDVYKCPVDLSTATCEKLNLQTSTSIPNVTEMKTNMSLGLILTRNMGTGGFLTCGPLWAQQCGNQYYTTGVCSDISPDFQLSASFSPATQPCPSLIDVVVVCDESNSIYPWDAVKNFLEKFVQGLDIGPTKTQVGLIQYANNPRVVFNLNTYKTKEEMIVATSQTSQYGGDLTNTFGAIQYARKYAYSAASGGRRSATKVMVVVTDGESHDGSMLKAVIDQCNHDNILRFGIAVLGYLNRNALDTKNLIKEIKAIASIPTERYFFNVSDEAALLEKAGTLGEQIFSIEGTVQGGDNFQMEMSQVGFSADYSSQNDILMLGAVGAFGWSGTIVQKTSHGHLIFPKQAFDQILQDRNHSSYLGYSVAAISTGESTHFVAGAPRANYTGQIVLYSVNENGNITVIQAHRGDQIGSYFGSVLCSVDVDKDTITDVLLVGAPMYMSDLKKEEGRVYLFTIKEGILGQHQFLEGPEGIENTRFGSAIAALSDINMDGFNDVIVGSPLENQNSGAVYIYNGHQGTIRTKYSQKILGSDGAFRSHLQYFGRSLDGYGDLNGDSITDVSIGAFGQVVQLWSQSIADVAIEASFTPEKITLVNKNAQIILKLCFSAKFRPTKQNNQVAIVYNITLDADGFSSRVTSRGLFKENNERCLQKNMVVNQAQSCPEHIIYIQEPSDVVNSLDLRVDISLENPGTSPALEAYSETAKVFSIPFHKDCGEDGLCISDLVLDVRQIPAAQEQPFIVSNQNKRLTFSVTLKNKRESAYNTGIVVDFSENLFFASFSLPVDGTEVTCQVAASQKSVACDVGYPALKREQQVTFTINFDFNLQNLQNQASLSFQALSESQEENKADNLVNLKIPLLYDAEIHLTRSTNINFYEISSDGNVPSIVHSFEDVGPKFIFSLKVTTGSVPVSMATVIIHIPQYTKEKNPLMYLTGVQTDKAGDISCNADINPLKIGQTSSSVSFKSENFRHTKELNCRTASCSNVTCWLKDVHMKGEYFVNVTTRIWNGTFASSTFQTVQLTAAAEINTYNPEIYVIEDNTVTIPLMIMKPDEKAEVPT
TIMP-1, sequence (P01033 24-207): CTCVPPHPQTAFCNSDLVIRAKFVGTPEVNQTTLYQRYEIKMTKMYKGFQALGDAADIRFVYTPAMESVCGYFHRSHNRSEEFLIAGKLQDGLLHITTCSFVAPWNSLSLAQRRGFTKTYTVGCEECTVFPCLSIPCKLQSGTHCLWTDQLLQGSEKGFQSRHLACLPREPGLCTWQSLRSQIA
Lumican, sequence (P51884 19-338): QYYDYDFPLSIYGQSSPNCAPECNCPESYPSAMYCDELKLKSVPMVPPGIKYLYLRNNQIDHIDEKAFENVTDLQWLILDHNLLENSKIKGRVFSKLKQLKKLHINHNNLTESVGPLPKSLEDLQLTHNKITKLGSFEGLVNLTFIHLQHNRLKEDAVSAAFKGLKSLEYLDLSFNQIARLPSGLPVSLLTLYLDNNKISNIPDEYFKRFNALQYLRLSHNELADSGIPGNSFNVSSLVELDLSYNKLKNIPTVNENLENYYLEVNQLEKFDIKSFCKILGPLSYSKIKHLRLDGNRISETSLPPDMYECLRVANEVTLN

Lumican (from UniProt P51884)
Kd [1]: 200 nM

TIMP-1 (from UniProt P01033)
Kd (MMP-14 (Homo sapiens) [2]): 1530 nM

TIMP-2 (from UniProt P16035)
Kd (MMP-14 (Homo sapiens) [3]): 56.1 nM
